B1: GFP-tagged chloride channel ClC-3 (natural protein, UniProt P51790 1-818, looked up)
chain: MESEQLFHRGYYRNSYNSITSASSDEELLDGAGVIMDFQTSEDDNLLDGDTAVGTHYTMTNGGSINSSTHLLDLLDEPIPGVGTYDDFHTIDWVREKCKDRERHRRINSKKKESAWEMTKSLYDAWSGWLVVTLTGLASGALAGLIDIAADWMTDLKEGICLSALWYNHEQCCWGSNETTFEERDKCPQWKTWAELIIGQAEGPGSYIMNYIMYIFWALSFAFLAVSLVKVFAPYACGSGIPEIKTILSGFIIRGYLGKWTLMIKTITLVLAVASGLSLGKEGPLVHVACCCGNIFSYLFPKYSTNEAKKREVLSAASAAGVSVAFGAPIGGVLFSLEEVSYYFPLKTLWRSFFAALVAAFVLRSINPFGNSRLVLFYVEYHTPWYLFELFPFILLGVFGGLWGAFFIRANIAWCRRRKSTKFGKYPVLEVIIVAAITAVIAFPNPYTRLNTSELIKELFTDCGPLESSSLCDYRNDMNASKIVDDIPDRPAGIGVYSAIWQLCLALIFKIIMTVFTFGIKVPSGLFIPSMAIGAIAGRIVGIAVEQLAYYHHDWFIFKEWCEVGADCITPGLYAMVGAAACLGGVTRMTVSLVVIVFELTGGLEYIVPLMAAVMTSKWVGDAFGREGIYEAHIRLNGYPFLDAKEEFTHTTLAADVMRPRRNDPPLAVLTQDNMTVDDIENMINETSYNGFPVIMSKESQRLVGFALRRDLTIAIESARKKQEGIVGSSRVCFAQHTPSLPAESPRPLKLRSILDMSPFTVTDHTPMEIVVDIFRKLGLRQCLVTHNGRLLGIITKKDILRHMAQTANQDPASIMFN
notes: chloride channel ClC-3 from plasmid pCLC3sGFP (Addgene); also called ClC-3-GFP; pCLC3sGFP; source: HEK293, transfected, in lysate (CHAPS buffer)
B2: transient outward potassium channel Kv4.3 tagged with GFP (natural protein, UniProt Q9UK17 1-655, looked up)
chain: MAAGVAAWLPFARAAAIGWMPVANCPMPLAPADKNKRQDELIVLNVSGRRFQTWRTTLERYPDTLLGSTEKEFFFNEDTKEYFFDRDPEVFRCVLNFYRTGKLHYPRYECISAYDDELAFYGILPEIIGDCCYEEYKDRKRENAERLMDDNDSENNQESMPSLSFRQTMWRAFENPHTSTLALVFYYVTGFFIAVSVITNVVETVPCGTVPGSKELPCGERYSVAFFCLDTACVMIFTVEYLLRLFAAPSRYRFIRSVMSIIDVVAIMPYYIGLVMTNNEDVSGAFVTLRVFRVFRIFKFSRHSQGLRILGYTLKSCASELGFLLFSLTMAIIIFATVMFYAEKGSSASKFTSIPASFWYTIVTMTTLGYGDMVPKTIAGKIFGSICSLSGVLVIALPVPVIVSNFSRIYHQNQRADKRRAQKKARLARIRVAKTGSSNAYLHSKRNGLLNEALELTGTPEEEHMGKTTSLIESQHHHLLHCLEKTTGLSYLVDDPLLSVRTSTIKNHEFIDEQMFEQNCMESSMQNYPSTRSPSLSSHPGLTTTCCSRRSKKTTHLPNSNLPATRLRSMQELSTIHIQGSEQPSLTTSRSSLNLKADDGLRPNCKTSQITTAIISIPTPPALTPEGESRPPPASPGPNTNIPSIASNVVKVSAL
notes: potassium channel Kv4.3 from plasmid pcDNA3.1-Kv4.3-GFP; also called Kv4.3-GFP; pcDNA3.1-Kv4.3-GFP; source: HEK293, transfected, in lysate (CHAPS buffer)

Target: the molecule itself
Experiment: single-molecule pull-down (SiMPull) with GFP photobleaching step counting; lysate of transfected HEK293 cells (0.4% CHAPS buffer) perfused over anti-GFP antibody on passivated coverslips; low surface density (0.05 molecules/µm^2); TIRF imaging

| Protein | stoichiometry N |
| --- | --- |
| B1 | 2 |
| B2 | 4 |

Source: PMC5727259, “Voltage-gated sodium channels assemble and gate as dimers” (Nature Communications, 2017)
